Source: patent US12527862B2, “Bactericidal/permeability increasing protein for use in a method of immunization, preferably as an adjuvant in a method of vaccination” (UNIVERSITÄT REGENSBURG, priority 2018, dated 2026)

Assays:
naïve CD4+ T cells = assay: T cell activation assay with naïve CD4+ T cells and dendritic cell-derived supernatant; format: cell-based, C57BL/6J mice; details: DC supernatant after BPI 200 nM ± ODN 1826 20 nM, aCD3 and aCD28, day five, Luminex, n=3 (FIG. 13A-C)
Protocol: Naive CD4+CD25-CD44-CD62L+ T cells were isolated from peripheral lymph nodes and spleen of C57BL/6J mice and purified by MACS and FACS. Naïve CD4+ T cells were cultured in the presence of aCD3 and aCD28 antibodies and dendritic cell-derived supernatant after stimulation with BPI (SN BPI, BPI 200 nM) or after stimulation with ODN 1826 (SN CpG, ODN 1826 20 nM) or after stimulation with BPI and ODN 1826 (SN BPI+CpG, BPI 200 nM, ODN 1826 20 nM) or supernatant without addition of BPI or ODN 1826 (SN NT). On day five, cytokine levels were measured by Luminex. • A. Th1 differentiation as shown by detection of IFNγ (n=3). • B. Th17 differentiation as shown by detection of IL-17 (n=3). • C. […] Lymph node cells were stimulated with aCD3 and aCD28 antibodies and SN BPI or SN NT and incubated for 6h before adding a protein transport inhibitor cocktail and incubating for additional 16h. […]
To isolate CD4+SC and pLNC, cells isolated from spleen and peripheral lymph nodes (see 2.1.3) were sorted by magnetic cell sorting (MACS), using a CD4+ T cell isolation kit (#130-104-454, Miltenyi Biotec). […] The flow-through, containing unlabeled CD4+ cells, was collected and cell number was determined using a hemocytometer. CD4+SC and pLNC were used in experiments or labeled with fluorescent antibodies against non-naïve T cell markers for fluorescence activated cell sorting (FACS) of naïve CD4+ T cells. […]

BMDCs = assay: Cytokine protein secretion by BMDCs (Luminex); format: cell-based, C57BL/6J mice
Protocol: All methods mentioned in this example were carried out as described in the preceding examples. Cells were stimulated with Zymosan depleted (Zymd, 5 μg/ml) from Invivogen (San Diego, CA, USA) or (R)-Pam3CSK4 (bLP, 10 nM) from EMC Microcollections GmbH (Tübingen, Germany). Protein secretion analysis was performed using the supernatants.
To quantify the interleukin and chemokine protein-level after stimulation with huBPI, Zymd, and (R)-Pam CSK4, a multiplex-system was used and determined by using the Luminex® technology (Austin, TX, USA). The cytokines were captured with anti-mouse capture-antibodies and detected by biotinylated antibodies specific for the respective protein (Table 3). Protein concentrations were calculated using a reconstituted standard curve of the analyzed proteins (SM039, #LMC4031, Lot #1438354; Thermo Fisher Scientific; Standard Mix 1a, #EPX010-20603-901, Lot #111709101, eBioscience).

[1] = system: human peripheral blood mononuclear cells; assay: Stimulation of human peripheral blood mononuclear cells, TNFα ELISA; format: cell-based; details: BPI 500 nM, 18 h
Protocol: After informed consent, blood was drawn from healthy male volunteers using heparinized blood collection tubes and PBMCs were separated using leucosep tubes containing FICOLL® PAQUE PLUS (Oxford Immunotec, Abingdon, Great Britian) at 1,000×g for 10 min. The pellet was resuspended in AIM VR Medium (Thermo Fisher Scientific Inc., Waltham, MA, USA), counted, and cultivated in 96-well plates for 4 h (1×10^5/100 μl). Then cells were stimulated with (R)-Pam3CSK4 (bLP, 1 nM) or LTA S. pneumoniae Δlgt (a lipoprotein deficient strain, LTA SPΔlgt, 1 μM, n=4) in the presence or absence of BPI (500 nM). The supernatants were collected after 18 h for determination of cytokine concentration by ELISA according to the manufacturer's instructions (OPTEIA™ Human TNFα ELISA Set, BD Biosciences, Heidelberg, Germany).

[2] = system: murine macrophages (BMDM); assay: TNFα ELISA in murine macrophages (BMDM); format: cell-based; details: LPS Ec 10 ng/ml or BPI 100 nM, 18 h, ELISA (FIG. 4B)
Protocol: Generation of BMDM was carried out similarly to BMDCs; MCSF was used instead of GMSCF for differentiation of BMDM. Cells were re-plated on day 1 of culture and harvested on day 5. On day 1, cells were seeded in new plates and harvested on day 5 for the experiments. Cells were stimulated with LPS Ec (10 ng/ml) or BPI (100 nM) for 18 h before supernatants were collected. TNFα levels were determined by ELISA (OPTEIA™ Murine TNFα ELISA Set, BD Bioscience, Heidelberg, Germany).

B1: bactericidal/permeability-increasing protein (protein)
chain: RIKIPDYSDSFKIKHLGKGHYSFYSMDIREFQLPSSQISMVPNVGLKFSISNANIKISGKWKAQKRFLKMSGNFDLSIEGMSISADLKLGSNPTSGKPTITCSSCSSHINSVHVHISKSKVGWLIQLFHKKIESALRNKMNSQVCEKVTNSVSSELQPYFQTLPVMTKIDSVAGINYGLVAPPATTAETLDVQMKGEFYSENHHNPPPFAPPVMEFPAAHDRMVYLGLSDYFFNTAGLVYQEAGVLKMTLRDDMIPKESKFRLTTKFFGTFLPEVAKKFPNMKIQIHVSASTPPHLSVQPTGLTFYPAVDVQAFAVLPNSSLASLFLIGMHTTGSMEVSAESNRLVGELKLDRLLLELKHSNIGPFPVELLQDIMNYIVPILVLPRVNEKLQKGFPLPTPARVQLYNVVLQPHQNFLLFGADVVYK
modifications: labeled with NT647 (Monolith NT Protein Labeling Kit RED-NHS) in the MST experiments
notes: recombinant human BPI, aa32-487 of huBPI with N-terminal HA signal peptide, expressed in HEK293T cells
activation and differentiation of naïve T cells into Th1, Th17 and Th22 cells (IFNγ, IL-17, IL-22) (naïve CD4+ T cells): promotes not only activation but also differentiation of naïve T cells into Th1, Th17 and Th22 cells
IL-4 level (BMDCs; BMDCs (FIG. 12)): not induced
IL-2, IL-12p40/p70, and IL-6 protein secretion (BMDCs; Luminex, n>7, 4h (FIG. 3)): increase of IL-2, IL-12p40/p70, and IL-6 protein secretion
stimulatory effect on the expression of IL-6 (IL-6 level), BPI vs Zymd vs bLP (BMDCs; Zymd 5 μg/ml, bLP 10 nM, Luminex, n>7, 4h (FIG. 3)): comparable
increase of IL-2 and IL12p40/p70 compared to Zymd and bLP (BMDCs; vs Zymd 5 μg/ml and bLP 10 nM, Luminex, n>7, 4h (FIG. 3)): significantly higher
effect of BPI alone on PBMCs [1]: minor effect
TNFα secretion by macrophages [2]: not in response to stimulation with BPI
